These results are taken from patent publication US20170008943A1 (Novo Nordisk, published 2017).

*1 amine or outer side, *2 acyl side, *3 side chain or, on linkers, in order; H or OH if unused. Side-chain parts run from the residue outwards. [ ]: non-standard residue; d: D form. The star is where a group is joined. γGlu = O=C(O)[C@H](CCC(=O)[*:2])N[*:1]; Desaminohistidyl = O=C(CCc1c[nH]cn1)*; Aib = CC(C)(N)C(=O)O

Assay [1] has as its target T1, human glucagon receptor (human, UniProt P47871 26-477). Briefly: cell-based or functional assay.
For assay [2], the target named is T1, human glucagon receptor. Briefly: displacement of 125I-glucagon from BHK membranes with human glucagon receptor (SPA), Assay (II)(b). A general note: In a radioligand displacement assay an active substance lowers the binding of a labelled ligand.

T1 sequence (P47871 26-477): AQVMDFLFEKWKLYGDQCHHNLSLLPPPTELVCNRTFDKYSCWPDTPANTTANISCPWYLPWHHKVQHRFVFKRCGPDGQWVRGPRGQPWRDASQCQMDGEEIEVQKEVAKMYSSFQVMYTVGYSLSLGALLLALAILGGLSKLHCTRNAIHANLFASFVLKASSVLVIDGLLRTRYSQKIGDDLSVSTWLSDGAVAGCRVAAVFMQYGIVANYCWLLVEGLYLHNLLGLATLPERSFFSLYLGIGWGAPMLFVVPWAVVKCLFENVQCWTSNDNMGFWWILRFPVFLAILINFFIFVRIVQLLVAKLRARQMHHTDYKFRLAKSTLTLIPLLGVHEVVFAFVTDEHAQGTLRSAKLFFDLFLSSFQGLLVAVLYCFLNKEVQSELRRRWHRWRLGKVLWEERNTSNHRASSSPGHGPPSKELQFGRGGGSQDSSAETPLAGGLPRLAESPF

B1: N^ε24-[(4S)-4-[[(4S)-4-[[(4S)-4-acetamido-4-carboxybutanoyl]amino]-4-carboxybutanoyl]amino]-4-carboxybutanoyl]-[Imp1, His3, Glu15, Glu21, Lys24, Leu27, … (peptide)
peptide: [Desaminohistidyl]SHGTFTSDYSKYLESRRAQEFVK([γGlu-γGlu-γGlu-Ac])WLLST-OH
SMILES: CC(=O)N[C@@H](CCC(=O)N[C@@H](CCC(=O)N[C@@H](CCC(=O)NCCCC[C@H](NC(=O)[C@@H](NC(=O)[C@H](Cc1ccccc1)NC(=O)[C@H](CCC(=O)O)NC(=O)[C@H](CCC(N)=O)NC(=O)[C@H](C)NC(=O)[C@H](CCCNC(=N)N)NC(=O)[C@H](CCCNC(=N)N)NC(=O)[C@H](CO)NC(=O)[C@H](CCC(=O)O)NC(=O)[C@H](CC(C)C)NC(=O)[C@H](Cc1ccc(O)cc1)NC(=O)[C@H](CCCCN)NC(=O)[C@H](CO)NC(=O)[C@H](Cc1ccc(O)cc1)NC(=O)[C@H](CC(=O)O)NC(=O)[C@H](CO)NC(=O)[C@@H](NC(=O)[C@H](Cc1ccccc1)NC(=O)[C@@H](NC(=O)CNC(=O)[C@H](Cc1c[nH]cn1)NC(=O)[C@H](CO)NC(=O)CCc1c[nH]cn1)[C@@H](C)O)[C@@H](C)O)C(C)C)C(=O)N[C@@H](Cc1c[nH]c2ccccc12)C(=O)N[C@@H](CC(C)C)C(=O)N[C@@H](CC(C)C)C(=O)N[C@@H](CO)C(=O)N[C@H](C(=O)O)[C@@H](C)O)C(=O)O)C(=O)O)C(=O)O
notes: Imp written X under substitutions
A word on the IC50: it is the concentration that gives 50% inhibition. Higher therefore signals lower potency. B1: the “EC50 hGlucagonR (pM), CRE luciferase reporter in BHK cells” value (from here on “EC50 hGlucagonR (pM)”) with human glucagon receptor [1] worked out at 6 pM. For the same molecule, the IC50 with human glucagon receptor [2] came to 1.5 nM.

B2: N^ε24-[(4S)-4-[[(4S)-4-[[(4S)-4-[[(4S)-4-acetamido-4-carboxybutanoyl]amino]-4-carboxybutanoyl]amino]-4-carboxybutanoyl]amino]-4-carboxybutanoyl]-[Imp1, His3, … (peptide)
peptide: [Desaminohistidyl]SHGTFTSDYSKYLD[Aib]RRAQDFVK([γGlu-γGlu-γGlu-γGlu-Ac])WLLST-OH
SMILES: CC(=O)N[C@@H](CCC(=O)N[C@@H](CCC(=O)N[C@@H](CCC(=O)N[C@@H](CCC(=O)NCCCC[C@H](NC(=O)[C@@H](NC(=O)[C@H](Cc1ccccc1)NC(=O)[C@H](CC(=O)O)NC(=O)[C@H](CCC(N)=O)NC(=O)[C@H](C)NC(=O)[C@H](CCCNC(=N)N)NC(=O)[C@H](CCCNC(=N)N)NC(=O)C(C)(C)NC(=O)[C@H](CC(=O)O)NC(=O)[C@H](CC(C)C)NC(=O)[C@H](Cc1ccc(O)cc1)NC(=O)[C@H](CCCCN)NC(=O)[C@H](CO)NC(=O)[C@H](Cc1ccc(O)cc1)NC(=O)[C@H](CC(=O)O)NC(=O)[C@H](CO)NC(=O)[C@@H](NC(=O)[C@H](Cc1ccccc1)NC(=O)[C@@H](NC(=O)CNC(=O)[C@H](Cc1c[nH]cn1)NC(=O)[C@H](CO)NC(=O)CCc1c[nH]cn1)[C@@H](C)O)[C@@H](C)O)C(C)C)C(=O)N[C@@H](Cc1c[nH]c2ccccc12)C(=O)N[C@@H](CC(C)C)C(=O)N[C@@H](CC(C)C)C(=O)N[C@@H](CO)C(=O)N[C@H](C(=O)O)[C@@H](C)O)C(=O)O)C(=O)O)C(=O)O)C(=O)O
notes: Imp and Aib written X under substitutions
In the case of B2, in the assay with human glucagon receptor [1], the “EC50 hGlucagonR (pM)” value came to 2 pM. Besides, the IC50 in the assay with human glucagon receptor [2] turned out to be 0.3 nM.

B3: N^ε24-[(4S)-4-[[(4S)-4-[[(4S)-4-[[(4S)-4-[[(4S)-4-acetamido-4-carboxybutanoyl]amino]-4-carboxybutanoyl]amino]-4-carboxybutanoyl]amino]-4-carboxybutanoyl]amino]- … (peptide)
peptide: XSHGTFTSDYSKYLESRRAQEFVKWLLST
modifications: Imp (imidazopropionyl, des-amino-histidine) at position 1; N-epsilon of Lys24 acylated with acetyl-(gamma-Glu)5 substituent as in the name; C-terminal carboxylic acid
notes: as for B1
As for B3, in the assay with human glucagon receptor [1], the “EC50 hGlucagonR (pM)” value was 6 pM. The same molecule displayed an IC50 with human glucagon receptor [2] of 2.7 nM.
